Results published in article PMC3078909.

Tests used:
Cys15 [1] = target: Cys15 (UniProt position 14, AANWKCNGSQQ); assay: chemical modification (MMTS inactivation followed by enzyme activity); conditions: not stated for the pKa determination (MMTS inactivation and activity assays were at 25°C); 100 mM TEA, 10 mM EDTA adjusted to the desired pH; free enzyme, 5 µg/mL, 80 µM MMTS
Cys15 [2] = target: T1, Cys15 (UniProt position 15, AANWKCNGSES); assay: as above; conditions: not stated for the pKa determination (MMTS inactivation and activity assays were at 25°C), 100 mM TEA, 10 mM EDTA adjusted to the desired pH, free enzyme, 5 µg/mL
Cys14 [3] = assay: as above; conditions: not stated for the pKa determination (MMTS inactivation and activity assays were at 25°C); 100 mM TEA, 10 mM EDTA adjusted to the desired pH; free enzyme, 5 µg/mL, 80 µM MMTS
Cys14 [4] = target: T2, Cys14 (UniProt position 14, AANWKCNGSQQ); assay: as above; conditions: not stated for the pKa determination (MMTS inactivation and activity assays were at 25°C); 100 mM TEA, 10 mM EDTA adjusted to the desired pH; free enzyme, 5 µg/mL, 80 µM MMTS
Cys14 [5] = target: T2, Cys14; assay: chemical modification (as in ref 24; this article says its new determinations were made 'under the same conditions'); conditions: free enzyme; cited from earlier work
Cys15 [6] = target: T1, Cys15; assay: as above; conditions: free enzyme; cited from earlier work
[7] = 10 and 80 µM MMTS (mean of both)

In the case of “Chimera TcTIM 1 (region 1 of TcTIM, regions 2-8 of TbTIM) (Trypanosoma cruzi / Trypanosoma brucei chimera; region 1 of TbTIM replaced by the TcTIM sequence (13 differing residues plus a one-residue N-terminal length difference; individual substitutions not listed in the text))”, the pKa (Cys15 [1]) is reported as 9.49±0.08.

“Chimera TcTIM 1-3 (regions 1-3 of TcTIM, regions 4-8 of TbTIM) (Trypanosoma cruzi / Trypanosoma brucei chimera; regions 4-8 of TcTIM replaced by the TbTIM sequence (individual substitutions not listed in the text))” showed a pKa (Cys15 [2]; [7]) of 9.86±0.05.

With “Chimera TcTIM 1-3, 5-8 (TcTIM with region 4 of TbTIM) (Trypanosoma cruzi / Trypanosoma brucei chimera; region 4 of TcTIM replaced by the TbTIM sequence (5 substitutions, not listed individually in the text))” the pKa (Cys15 [2]; [7]) was 9.59±0.06.

In the case of “Chimera TcTIM 1-4 (regions 1-4 of TcTIM, regions 5-8 of TbTIM) (Trypanosoma cruzi / Trypanosoma brucei chimera; regions 5-8 of TcTIM replaced by the TbTIM sequence (individual substitutions not listed in the text; Figure 1 is image only))”, the pKa (Cys15 [2]; 10 µM MMTS) is reported as 9.17±0.12.

Work on “Chimera TcTIM 2,3, 5-8 (TcTIM with regions 1 and 4 of TbTIM) (Trypanosoma cruzi / Trypanosoma brucei chimera; regions 1 and 4 of TcTIM replaced by the TbTIM sequence (13 + 5 differing residues, not listed individually in the text))” yielded a pKa (Cys14 [3]) of 10.61±0.06.

For “Triosephosphate isomerase (TbTIM), wild type (Trypanosoma brucei)”, the pKa (Cys14 [4]) is listed as 10.53±0.06 and the pKa (Cys14 [5]) is listed as 10.08±0.03.

For “Triosephosphate isomerase (TcTIM), wild type (Trypanosoma cruzi)”, the pKa (Cys15 [2]; 10 µM MMTS) is given as 9.27±0.16 and the pKa (Cys15 [6]) is given as 9.28±0.07.
